Assay results as given in US20210130436A1 (published 2021).
Changes are numbered by the printed parent chain. In names and notes the source's numbering stands.

T1: CD96 (UniProt P40200 22-585, limits assumed)
T1 construct: whole, on cells
T1 sequence (looked up): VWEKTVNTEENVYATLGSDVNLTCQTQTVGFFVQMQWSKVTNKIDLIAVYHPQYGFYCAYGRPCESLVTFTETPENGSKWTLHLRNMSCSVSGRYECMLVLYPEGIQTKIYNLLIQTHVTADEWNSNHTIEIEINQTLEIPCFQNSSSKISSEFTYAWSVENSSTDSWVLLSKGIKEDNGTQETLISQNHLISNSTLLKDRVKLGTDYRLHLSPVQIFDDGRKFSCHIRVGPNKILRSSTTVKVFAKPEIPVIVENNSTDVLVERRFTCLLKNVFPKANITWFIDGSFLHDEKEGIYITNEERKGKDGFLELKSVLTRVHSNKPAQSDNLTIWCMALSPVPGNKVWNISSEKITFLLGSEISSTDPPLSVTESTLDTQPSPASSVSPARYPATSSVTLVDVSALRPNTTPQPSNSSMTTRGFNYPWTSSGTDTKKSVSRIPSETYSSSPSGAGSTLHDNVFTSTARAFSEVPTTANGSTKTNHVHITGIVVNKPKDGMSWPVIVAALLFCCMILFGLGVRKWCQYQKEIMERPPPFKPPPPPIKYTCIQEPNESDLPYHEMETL

T2: TIGIT (Homo sapiens (Human), UniProt Q495A1 22-244)
T2 sequence: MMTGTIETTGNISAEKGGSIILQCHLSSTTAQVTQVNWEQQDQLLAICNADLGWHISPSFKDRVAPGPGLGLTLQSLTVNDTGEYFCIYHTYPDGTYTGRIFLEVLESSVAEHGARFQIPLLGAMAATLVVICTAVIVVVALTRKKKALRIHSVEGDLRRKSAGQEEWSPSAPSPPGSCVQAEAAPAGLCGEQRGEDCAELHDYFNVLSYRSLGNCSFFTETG

T3: CD226 (Homo sapiens (Human), UniProt Q15762 19-336)
T3 sequence: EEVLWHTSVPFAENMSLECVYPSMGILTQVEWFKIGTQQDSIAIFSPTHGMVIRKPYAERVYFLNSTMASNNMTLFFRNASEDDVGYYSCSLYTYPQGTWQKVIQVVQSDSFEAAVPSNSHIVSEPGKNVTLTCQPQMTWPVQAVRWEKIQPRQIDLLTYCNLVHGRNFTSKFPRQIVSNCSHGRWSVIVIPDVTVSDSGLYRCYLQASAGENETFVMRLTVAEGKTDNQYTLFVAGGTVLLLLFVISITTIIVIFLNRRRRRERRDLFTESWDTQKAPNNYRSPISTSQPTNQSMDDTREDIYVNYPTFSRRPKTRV

B1: variant CD80 IgV-Fc M47V/V68M (Fc fusion, not shown: small tags and cut ends; a dimerising Fc or GST)
chain: VIHVTKEVKEVATLSCGHNVSVEELAQTRIYWQKEKKMVLTMMSGDVNIWPEYKNRTIFDITNNLSIMILALRPSDEGTYECVVLKYEKDAFKREHLAEVTLSVKAD
B2: variant CD80 IgV-Fc N48K (Fc fusion, not shown: small tags and cut ends; a dimerising Fc or GST)
chain: B1 chain with V47M, N48K, M68V
B3: variant CD80 IgV-Fc V68M (Fc fusion, not shown: small tags and cut ends; a dimerising Fc or GST)
chain: B1 chain with V47M
B4: variant CD80 IgV-Fc V68M/L85Q (Fc fusion, not shown: small tags and cut ends; a dimerising Fc or GST)
chain: B1 chain with V47M, L85Q
B5: variant CD155 IgV-Fc Q62F (Fc fusion, not shown: a dimerising Fc or GST)
chain: WPPPGTGDVVVQAPTQVPGFLGDSVTLPCYLQVPNMEVTHVSQLTWARHGESGSMAVFHQTFGPSYSESKRLEFVAARLGAELRNASLRMFGLRVEDEGNYTCLFVTFPQGSRSVDIWLRVL
B6: variant CD155 IgV-Fc Q62F/L104E/G111R (Fc fusion, not shown: a dimerising Fc or GST)
chain: B5 chain with L104E, G111R
B7: variant CD155 IgV-Fc Q62Y (Fc fusion, not shown: a dimerising Fc or GST)
chain: B5 chain with F62Y
B8: variant CD155 IgV-Fc S42A/L104Q/G111R (Fc fusion, not shown: a dimerising Fc or GST)
chain: B5 chain with S42A, F62Q, L104Q, G111R
B9: variant CD155 IgV-Fc S42A/S52L/L104E/G111R (Fc fusion, not shown: a dimerising Fc or GST)
chain: B5 chain with S42A, S52L, F62Q, L104E, G111R
B10: variant CD155 IgV-Fc S42A/S52Q/L104Q/G111R (Fc fusion, not shown: a dimerising Fc or GST)
chain: B5 chain with S42A, S52Q, F62Q, L104Q, G111R
B11: variant CD155 IgV-Fc S42C (Fc fusion, not shown: a dimerising Fc or GST)
chain: B5 chain with S42C, F62Q
B12: variant CD155 IgV-Fc S42L/S52L/Q62F/L104Q (Fc fusion, not shown: a dimerising Fc or GST)
chain: B5 chain with S42L, S52L, L104Q
B13: variant CD155 IgV-Fc S42L/S52Q/L104E (Fc fusion, not shown: a dimerising Fc or GST)
chain: B5 chain with S42L, S52Q, F62Q, L104E
B14: variant CD155 IgV-Fc S42N/L104Q/G111R (Fc fusion, not shown: a dimerising Fc or GST)
chain: B5 chain with S42N, F62Q, L104Q, G111R
B15: variant CD155 IgV-Fc S42N/S52Q/Q62F (Fc fusion, not shown: a dimerising Fc or GST)
chain: B5 chain with S42N, S52Q
B16: variant CD155 IgV-Fc S42Q (Fc fusion, not shown: a dimerising Fc or GST)
chain: B5 chain with S42Q, F62Q
B17: variant CD155 IgV-Fc S42W (Fc fusion, not shown: a dimerising Fc or GST)
chain: B5 chain with S42W, F62Q
B18: variant CD155 IgV-Fc S42W/S52Q/V57L/Q62Y (Fc fusion, not shown: a dimerising Fc or GST)
chain: B5 chain with S42W, S52Q, V57L, F62Y
B19: variant CD155 IgV-Fc S42W/S52R/Q62Y/L104Q (Fc fusion, not shown: a dimerising Fc or GST)
chain: B5 chain with S42W, S52R, F62Y, L104Q
B20: variant CD155 IgV-Fc S52E (Fc fusion, not shown: a dimerising Fc or GST)
chain: B5 chain with S52E, F62Q
B21: variant CD155 IgV-Fc S52M (Fc fusion, not shown: a dimerising Fc or GST)
chain: B5 chain with S52M, F62Q
B22: variant CD155 IgV-Fc S52M/L104Q (Fc fusion, not shown: a dimerising Fc or GST)
chain: B5 chain with S52M, F62Q, L104Q
B23: variant CD155 IgV-Fc S52M/Q62Y (Fc fusion, not shown: a dimerising Fc or GST)
chain: B5 chain with S52M, F62Y
B24: variant CD155 IgV-Fc S52Q (Fc fusion, not shown: a dimerising Fc or GST)
chain: B5 chain with S52Q, F62Q
B25: variant CD155 IgV-Fc S52R/Q62F/L104Q/G111R (Fc fusion, not shown: a dimerising Fc or GST)
chain: B5 chain with S52R, L104Q, G111R
B26: variant CD155 IgV-Fc S52W (Fc fusion, not shown: a dimerising Fc or GST)
chain: B5 chain with S52W, F62Q
B27: variant CD155 IgV-Fc S52W/L104E (Fc fusion, not shown: a dimerising Fc or GST)
chain: B5 chain with S52W, F62Q, L104E
B28: variant CD155 IgV-Fc T45Q/S52L/L104E/G111R (Fc fusion, not shown: a dimerising Fc or GST)
chain: B5 chain with T45Q, S52L, F62Q, L104E, G111R
B29: variant CD155 IgV-Fc S52L (Fc fusion, not shown: a dimerising Fc or GST)
chain: B5 chain with S52L, F62Q

target: T4, CD28 endogenously expressed on Jurkat/IL2 reporter cells (human, UniProt P10747 19-220); experiment: flow cytometry, Jurkat cells (CD28)
T4 construct: also called Jurkats (CD28)

Row | Binder | MFI at 33.3 nM [MFI]
1 | B1 | 328
2 | B2 | 60.1
3 | B3 | 37.9
4 | B4 | 91.7

target: T5, human PD-L1, full-length, on CHO cells (human, UniProt Q9NZQ7 19-290); experiment: flow cytometry, CHO cells stably expressing PD-L1
T5 construct: also called huPD-L1; CD274
T5 sequence (Q9NZQ7 19-290): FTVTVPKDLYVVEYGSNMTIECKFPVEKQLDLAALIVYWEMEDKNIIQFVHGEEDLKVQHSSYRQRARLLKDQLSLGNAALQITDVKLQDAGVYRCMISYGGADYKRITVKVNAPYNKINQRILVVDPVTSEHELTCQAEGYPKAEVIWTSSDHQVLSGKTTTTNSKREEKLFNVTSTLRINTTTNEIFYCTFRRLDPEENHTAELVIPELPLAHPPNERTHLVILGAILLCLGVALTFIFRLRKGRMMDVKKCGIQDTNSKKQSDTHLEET

Row | Binder | MFI at 33.3 nM [MFI]
5 | B1 | 4290
6 | B2 | 481
7 | B3 | 118
8 | B4 | 347

target: T1, CD96; experiment: flow cytometry, Fc fusion at 100 nM, CD96-transfected cells

Row | Binder | MFI at 100 nM [MFI]
9 | B5 | 2760
10 | B6 | 1520
11 | B7 | 1830
12 | B8 | 1700
13 | B9 | 1610
14 | B10 | 1640
15 | B11 | 1590
16 | B12 | 2320
17 | B13 | 1700
18 | B14 | 1960
19 | B15 | 1740
20 | B16 | 2140
21 | B17 | 2560
22 | B18 | 1700
23 | B19 | 1760
24 | B20 | 1800
25 | B21 | 1610
26 | B22 | 1630
27 | B23 | 1650
28 | B24 | 1820
29 | B25 | 2360
30 | B26 | 1710
31 | B27 | 1630
32 | B28 | 1580

target: T5, human PD-L1, full-length, on CHO cells; experiment: flow cytometry; PD-L1 MFI over CD28 MFI

Row | Binder | Ratio of PDL1:CD28 [ratio]
33 | B1 | 13.1
34 | B2 | 8
35 | B3 | 3.1
36 | B4 | 3.8

target: T6, human CTLA4 (CTLA-4), full-length, on CHO cells (human, UniProt P16410 36-223); experiment: flow cytometry, CHO/CTLA4 cells; MFI relative to WT CD80 ECD-Fc
T6 construct: also called huCTLA4
T6 sequence (P16410 36-223): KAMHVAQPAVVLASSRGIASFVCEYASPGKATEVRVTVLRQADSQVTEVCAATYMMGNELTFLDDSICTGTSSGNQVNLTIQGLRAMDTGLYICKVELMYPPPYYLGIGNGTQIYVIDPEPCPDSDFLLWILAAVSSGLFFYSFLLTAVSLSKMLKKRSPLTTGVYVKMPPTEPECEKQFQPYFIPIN

Row | Binder | Fold change to WT CD80 [fold]
37 | B1 | 0.2
38 | B2 | 0.1
39 | B3 | 0
40 | B4 | 0.1

target: T2, TIGIT; experiment: flow cytometry, Fc fusion at 100 nM, TIGIT-transfected cells

Row | Binder | MFI at 100 nM [MFI]
41 | B29 | 2220
42 | B5 | 2210
43 | B6 | 1970
44 | B7 | 2530
45 | B8 | 1920
46 | B9 | 2260
47 | B10 | 1810
48 | B11 | 1910
49 | B12 | 2020
50 | B13 | 1950
51 | B14 | 2430
52 | B15 | 2400
53 | B16 | 2070
54 | B17 | 2430
55 | B18 | 1960
56 | B19 | 1920
57 | B20 | 2660
58 | B21 | 1870
59 | B22 | 2670
60 | B23 | 1930
61 | B24 | 2290
62 | B25 | 2970
63 | B26 | 1990
64 | B27 | 1940
65 | B28 | 2290

target: T4, CD28 endogenously expressed on …; experiment: flow cytometry, Jurkat cells (CD28); MFI relative to WT CD80 ECD-Fc

Row | Binder | Fold change to WT CD80 [fold]
66 | B1 | 0.5
67 | B2 | 0.1
68 | B3 | 0.1
69 | B4 | 0.1

target: T3, CD226; experiment: flow cytometry, Fc fusion at 100 nM, CD226-transfected cells

Row | Binder | MFI at 100 nM [MFI]
70 | B29 | 2680
71 | B5 | 2570
72 | B6 | 2040
73 | B7 | 2620
74 | B8 | 1900
75 | B9 | 1890
76 | B10 | 2160
77 | B11 | 2100
78 | B12 | 2640
79 | B13 | 6470
80 | B14 | 2310
81 | B15 | 2150
82 | B16 | 2230
83 | B17 | 2130
84 | B18 | 2140
85 | B19 | 2300
86 | B20 | 2600
87 | B21 | 1900
88 | B22 | 2250
89 | B23 | 2000
90 | B24 | 2020
91 | B25 | 3170
92 | B26 | 2040
93 | B27 | 1910
94 | B28 | 2390

target: T6, human CTLA4 (CTLA-4), full-length, on …; experiment: flow cytometry, CHO cells stably expressing CTLA4

Row | Binder | MFI at 33.3 nM [MFI]
95 | B1 | 7280
96 | B2 | 4950
97 | B3 | 568
98 | B4 | 3290

target: T5, human PD-L1, full-length, on CHO cells; experiment: flow cytometry, CHO/PD-L1 cells; MFI relative to WT CD80 ECD-Fc

Row | Binder | Fold change to WT CD80 [fold]
99 | B1 | 33.5
100 | B2 | 3.8
101 | B3 | 0.9
102 | B4 | 2.7
